Experimental findings from the nanobody polyreactivity screen of Harvey et al. (2022) are described below.

This series in a line: yeast display, Sf9 membrane polyspecificity reagent, FACS + sequencing; frameworks hold sequencing errors. The method, boiled down:
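A nanobody's polyreactivity label depends on the gate it was sorted from. Yeast display cells were stained with 10% biotinylated, detergent-solubilized Sf9 membrane reagent for 1 hour at 4 °C, enriched on streptavidin microbeads and sorted by FACS. The low and high (top ~1%) gates were set on anti-HA fluorescence for expression and streptavidin fluorescence for reagent binding.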
For the sequence “QVQLVESGVGLVQAGGSLRLSCAASGGIFGKYVMGWSRQAPGKERELVAAITLRGGSTYYADSVKGRFTISRDNAKNTVYLQMNSLKPEDTAVYYCPRRAYQNWYNYWGQGTQVTVSS”, the “polyreactivity (PSR sort gate)” value is listed as “high polyreactivity”.
For “QVQLVESGGGLVQAGGSLRLSCAASGSIFSYYAMGWYRQAPGKERELVAAITRGGTTYYADSVKGRFTISRDNAKNTVYLQRNSLKPEDTAVYYCAASDYYGEYEYWGQGTQVTVSS”, the “polyreactivity (PSR sort gate)” value is listed as “high polyreactivity”.
On to “QVQLVESGGCIDQAGGSLRLSCAASGSNFRGYAKGWYRQAPGKERELVAAITWSGGSTYYADSVKGRFTISRDKAKNTVSLQMNSLKPEDTAVYYCAAEYWDSDTYDYCGQGTQVTVSS”, for which the “polyreactivity (PSR sort gate)” value is recorded as “low polyreactivity”.
Take “QVQLVESGGGLVQAGGSLRLSCAASGIISIFNVMGWYRQAPGKEMEWVASITGRGGSTFYADSVKGRFTISRDNAKNTVDLLMNSMKPEATAVYFCATDNGYTYPVTGLYDYWGQGTQVTVSS”: the “polyreactivity (PSR sort gate)” value is recorded as “low polyreactivity”.
On to “QVQLVESGGGLVQAGGSLRLSCAASGFIFWYYAMGWYRQAPGKERELVAAINSSGGSTYYADSVKGRFTISRDNAKNTVSLQMNSLKPEDTAVYYCAARAYQRGNYWGQGTQVTVSS”, for which the “polyreactivity (PSR sort gate)” value was “high polyreactivity”.
With “QFQLLESGGGLVQAGGSLRLSCAASGSIFRSNTMGWSRQAPGKAREFVAAISRRGSRTYADSVKGRFTISRDNAKNTVYLQMNSRKPEDTAVYYCAAERGYQAHPGQGDYWGQGTQVTVSA” the entry was “high polyreactivity”; with “QVQLVESGGGLVQAGGSLRLSCAASGRIFSNNAMGWYRQAPGKERELVAAITNSGGSTYYADSVKGRFTISRDNAKNTVYLQMNSLKPEDTAVYYCAADHLSVPYDVYWTYSYWGQGTQVTVSS”, “low polyreactivity”.
With “QVQVVESGGGLVKAGGSLRLSCAASGGTFLINAMGWYRQAPGKERELVATITSGGTTYYADSVKGRFTISRDNAKNTVYLQMNSLKPEDTAVYYCATRGKGRYGYDSWGQGTQVTVSS” the entry was “low polyreactivity”; with “QVQLVESVGGLVQAGGSLRLSCAASGRIFRYYAMGWYRQAPGKERELVAAISISGGRTYYADSVKGRFSISRDNAKNTVYLQMNSLKPEDTAVYYCNADPYWYDRDKKYDYWGQGTQVTVSS”, “high polyreactivity”; with “QVQLVESGGGLVQAGGSLRLSCAASGRTFSKYAMGWYRQAPGKERELVASISSDGRTYYADSVKGRFTISRDNAKNTVYLQMNRLKPEDTAVYYCAAKEWYFPTWYTYYERDYWGQGTQVTVSS”, “high polyreactivity”.
With “QVQLVESGGGLVQAGGSLRLSCAASGRIFGGYAMGWYRQAPGKERELVAVITDGGSTNYADSVKGRFTISRDNAKNTVYLQMNSLKPEDTAVYYCAADSYGDEPPYDYWGQGTQVTVSS” the entry was “low polyreactivity”.
Take “QVQLVESGGGLVQAGGSLRLSCAASGSTFDYNAMGWYRQAPGKERELVADITGSGASTSYADSVKGRFTISRDNAKNTVYLQMNSLKPEDTAVYYCAATGYSSWTYYTHEYWGQGTQVTVSS”: the “polyreactivity (PSR sort gate)” value is listed as “low polyreactivity”.
As to “QVQLVESGGGLVQAGGSLRLSCAASGSTFWYYAMGWYRQAPGKERELVAAITSSGSTYYADSVKGRFTISRDNAKNTVYLQMNRLKPEDTAVYYCAAEQWYCYGSYDYWGQVTQVTVSS”, the “polyreactivity (PSR sort gate)” value was “high polyreactivity”.
With “QVQLVESGGGLVQAGGSLRLSCAASGSTFSDNAMGWYRQAPGKERELVAAITSGGSTYYADSVKGRFTISRDNAKNTVYLQMNSLKPEDTAVYYCATGGVTFGSVVRGVDGDYWGQGTQVTVSS” the entry was “low polyreactivity”.
To “QVQLVESGGGLDQAGGSLRLSCAASGRIFYPYTMGWYRQAPGKERELVAAISSTGRTNYADSVKGRFTISRDNAKNTVYLQMNSLKPEDTAVYYCAKRYRKYSLGPPGNDYWGQGTQVTVSS” belongs “high polyreactivity”; to “QVQLVESGGGLVQAGGSLRLSCAASGRILYGYTMGWYRQAPGKEREFVATITRGGSTYYADSVKGRFTISRDNAKNTVYLQMNSLKPEDTAVYYCAAELSLATPTVPWYLYNYWGQGTQVTVSS”, “low polyreactivity”; to “QVQLVESGGGLVQAGGSLRLSCAASGIIFPFYAMGWYRKAPGKERELVAAITSDGNTNYADSVKGRFTISRDNAKNTVYLQMNSLKPEDTAVYYCNAETQYGVLSWHSTRHEYWGQGTQVTVSS”, “low polyreactivity”.
With “QVQLVESGGGLVQAGGSLRLSCAASGSTFEYYAMGWYRQAPGKERELVAVITNGGSTNYADSVKGRFTISRDNAKNTVYLQKNSLKPEDTAVYYCNAERRVFYYFDYDFWGLGTQVTVSS” the entry was “low polyreactivity”; with “QVQLVESGGGLVQAGGSLRLSCAASGSIFGTYAMGWYRPAPGNERELVAAITWRDDGNTYYADSVQGRFTISRDNAKNTVYLQMNSLQPEDTAVYYGAASRAYGKDAYRGYSYRYDYWGQGTQGTVSS”, “high polyreactivity”.
For “QVQLVESGGGLVQAGGSLRLSCAASGRIFWSYAMGWYRQAPGKERELVAAIRSGGTTDYADAVKGRFTISRDNAKYTVYLQMNSLKPEDTADYYCNREYRGAINYIYYYWGQGTQVTVSS”, the “polyreactivity (PSR sort gate)” value was “low polyreactivity”.
For the sequence “QVQPQESGGGQVQAGSCLRLSCTASGYIFLYAYMGRYRQAPGKEREFVATITDGTSTYYADSVKGRFTISRNNAKNIVYLQMNSLKPEDTAVYYCAADAGGGYPGDEDWGQGTQVTVSS”, the “polyreactivity (PSR sort gate)” value is “low polyreactivity”.
As to “QVQLVESGGGLVQAGGSLRLSCAASGSTFPWNAMGWYRQAPGKERELVAAINYGNGSTYYADSVKGRFTISRDNAKNTVYLQMNSLKPEDTAVYYCNADYTGTRTDSVTPEYEYWGQGTQVTVSS”, the “polyreactivity (PSR sort gate)” value is listed as “low polyreactivity”.
For “QVQLVESGGGLVPAGGSLRLSCAASGSIFEGNAMGWYRQAPGKERELVAAISTTGGITYYADSVKGRFTISRDNAKNTVYLQMNSLKPEETAVYYCAADPSQPRIDSSNYDYWGQGTQVTVSS”, the “polyreactivity (PSR sort gate)” value is listed as “low polyreactivity”.
For “QDQLVESGGGLVQAGGSLRLSCAASGSIFGSYAMGWYRQAPGKEMELVAAISYSGASTYYADSVKGRFTISRDNAKNTVYLQMNSLKPEDTAVYYCNKDPRWRRFNYWGQGTQVTVSS”, the “polyreactivity (PSR sort gate)” value was “high polyreactivity”.
With “QVQVVESGGGLVQAGGSLRLSCAPSGRTFYGNVMGWYRQAPGKERELVAAISSRGSSTRYADSVKGRFTISRDNAKNTVYLQMNRLKPEDTAVYYCAARNEYWGQGTQVTVSS” the entry was “high polyreactivity”; with “QVQLVESGGGLVQAGGSLRLSCAASGNTFYTYGMGWYRQAPGKERELVAAINHNGGSTYYADSVKARFTISRDNAKNTVYLQMNSLKPEDTAVYYCNADYSTYVERGSSVYYWYDYWGQGTQVTVSS”, “low polyreactivity”; with “QVQIVESGGGLVQAGGSLPLSSAPSGSIFAPYAMGWYRQAPGKERELVAAINISGGTYYADSVKGRFTISRDNAKNTLYLQMNSLKPEDTAVYYCAARYLYGYYGFDYWGQGTQVTVSS”, “high polyreactivity”.
As for “QVQLVESGGGLVPAGGSLRLSCAASGRTFYRYARGWYRKAHGKERELVASITRDGRTNYADSVKGSFTISRDNAKNTVYLQMNSLKPEDTAFYYCNAKLKITHSSSDYWGQGTQVTVSS”, the “polyreactivity (PSR sort gate)” value is recorded as “high polyreactivity”.
With “QVQLVESGGGLVQAGGSLRLSCAASGSIFRSYAMGWYRQAPGKERELVAAISRGGSTTYADSVKGRFTISRDNAKNTVYLQMNSLKPEDTAVYYCAVANVYYEGYDYWGQGTQVTVSS” the entry was “low polyreactivity”; with “QVQLVESGGGLVQAVGSLRLSCAASGGIFRVYAMGWYREAPGKEREMVAAIRWTGGSTYYADSVKGRFKISRDNAKNTVYLQMKRLKPEDTAVYYWAAGRYYSDGSRTIYDYWGQGTQVTVSS”, “low polyreactivity”.
With “QVQLVESGGGLVQAGGSLRLSCAASGRIFPYYAMGWYRQAPGKERELVAAISSGTSTYYADSVKGRFTISRDNANNTVYLKMNSLKQEDTAVYYSNGRHRRGRFTHDYDYWGQGTQVTVTS” the entry was “low polyreactivity”; with “QVQLEESGGGLVQAGGSLRLSCAASGSIFTDYAMGSYGQAPGKERELVAAITSGGSTNYADSVKGRFTISRDNAKNTVYLQMNSLKPEDTAVYYCNADDYWLDSWSSDLWYDYWGQGTQVTVSS”, “low polyreactivity”.
For the sequence “QVQLEESGGGLVQAGGSLRLSCAASGFISFAYAMGWYIQAPGKERELVAGISRSGDSTYYADSVKGRFTISRDNAKNTVYLQMNSLKPEDTAVYYCAARQVDWFDYTTAQVGSYKVNYWGQGTQVTVSS”, the “polyreactivity (PSR sort gate)” value is “low polyreactivity”.
For the sequence “QVQLVESGGGLVQAGGSLRLSCAASGIYAMGWYRQAPGKERELVAAIRWSGGSTYYADSVKGRFTISRDNAKNTVYLQMNSLKPEDTAVYYCAKRLRPGGYWYDYWGQGTQVTVSS”, the “polyreactivity (PSR sort gate)” value was “high polyreactivity”.
With “QVQLVESGGGLVQAGGSLRLSCAASGYTYSDNAMGWYRPAPGKERELVAAITSGVSTYYADSVKGRFTISRDNAKNTVYLQMNSPKPEDTAVYYCAKDVAVYADLYQGAPYGYWGQGTQVTVST” the entry was “low polyreactivity”; with “QVQLVESGGGLVQAGGSLRLICAASGYTFPDYAMGWYRPAPGTERELVAAIRSGGGTNYADSVKGRFTISRDNAKNSVYLQMNSMKPEDTAVFYCAKEWAGGLYDYWGQGTQVTVSS”, “low polyreactivity”.
As for “QVQLVESGGGLVQAGGSLRLSCAASGSTFRRNAMGWYRQAPGKERELVAAISSSGGSTYYADSVKGRFTISRDNAKNTVFLQMNSLKPEDTAVYYCAAGYPTLRGYYYWGQGTQVTVSS”, the “polyreactivity (PSR sort gate)” value was “low polyreactivity”.
With “QVQLVESGGGLVQAGGSLRVSCAASGLTFRFYAMGWYRQAPGKERELVAAISTSGGSTYYADSVKGRFTISRDNAMNTVYLQMNSLKPEDTAVYYCAARARYYHSRYDYWGQGTQVTVSS” the entry was “high polyreactivity”; with “QVQLVESGGGLVQAGGSLRLSCAASGRITFSHNTMGWYRQAPGKERELVAAISSGGRTNYADSVKGRFTISRDNAKNTVYLQMNSLKPEDTAVYYCARESHYDFIYDGMDYWGQGTQVTVSS”, “low polyreactivity”.
To “QVQLVESGGGLVQAGGSLRLSCAASGSIFDTYAMGWYRQAPGKERELVAAITWSGSSTYYADSVKGRFTISRDNSKNTVYLQMNSLKPEDTAVYYCAKDYYREVTTEYDYWGQGTQVTVSS” belongs “high polyreactivity”.
